{"source": "paper PMC4540666", "binders": {"B1": {"name": "SLP-76 pY173 peptide (Ac-NSMpY173IDRPPTGK-NH2) (peptide)", "peptide": "Ac-NSM[pY]IDRPPTGK-NH2", "SMILES": "CC[C@H](C)[C@H](NC(=O)[C@H](Cc1ccc(OP(=O)(O)O)cc1)NC(=O)[C@H](CCSC)NC(=O)[C@H](CO)NC(=O)[C@H](CC(N)=O)NC(C)=O)C(=O)N[C@@H](CC(=O)O)C(=O)N[C@@H](CCCNC(=N)N)C(=O)N1CCC[C@H]1C(=O)N1CCC[C@H]1C(=O)N[C@H](C(=O)NCC(=O)N[C@@H](CCCCN)C(N)=O)[C@@H](C)O"}}, "key": {"PLCγ1 SH2C-linker (rat)": {"molecular_target": "PLCγ1 SH2C-linker (rat) (UniProt P10686)", "test": "other fluorescence titration"}, "[1]": {"molecular_target": "PLCγ1 SH2C domain (C-terminal SH2 domain of PLCγ1) (rat) (UniProt P10686)", "test": "other fluorescence titration"}}, "note": "[ ]: non-standard residue; d: D form. pY = N[C@@H](Cc1ccc(OP(=O)(O)O)cc1)C(=O)O"}
{"binder": "B1", "values": [{"measurement": "Kd", "setting": "PLCγ1 SH2C-linker (rat)", "value": 2900, "unit": "nM"}, {"measurement": "Kd", "setting": "[1]", "value": 1600, "unit": "nM"}]}
